Assay results as given in patent US20230381281A1, “PHARMACEUTICAL COMPOSITION COMPRISING GLUCAGON/GLP-1/GIP TRIPLE AGONIST OR LONG-ACTING CONJUGATE THEREOF FOR PREVENTING OR TREATING LUPUS-RELATED DISEASES” (HANMI PHARM. CO., LTD., priority 2020, published 2023).
Bridge positions count the residues as written; N and C are the ends. Square brackets hold non-standard residues; d marks the D form. Ends that are not written are not given here. Aib = CC(C)(N)C(=O)O

Key:
Assay type in all cases: cell-based
human GLP-1 receptor = target: T1, human GLP-1 receptor (Homo sapiens, UniProt P43220); test: In vitro cAMP activity in human GLP-1 receptor-expressing CHO cells (LANCE cAMP kit); settings: long-acting conjugates; relative titer from cAMP EC50 compared to human GLP-1
T1 construct: expressed in transfected cells; host or cells: Chinese hamster ovary (CHO)
T1 sequence (P43220 24-463): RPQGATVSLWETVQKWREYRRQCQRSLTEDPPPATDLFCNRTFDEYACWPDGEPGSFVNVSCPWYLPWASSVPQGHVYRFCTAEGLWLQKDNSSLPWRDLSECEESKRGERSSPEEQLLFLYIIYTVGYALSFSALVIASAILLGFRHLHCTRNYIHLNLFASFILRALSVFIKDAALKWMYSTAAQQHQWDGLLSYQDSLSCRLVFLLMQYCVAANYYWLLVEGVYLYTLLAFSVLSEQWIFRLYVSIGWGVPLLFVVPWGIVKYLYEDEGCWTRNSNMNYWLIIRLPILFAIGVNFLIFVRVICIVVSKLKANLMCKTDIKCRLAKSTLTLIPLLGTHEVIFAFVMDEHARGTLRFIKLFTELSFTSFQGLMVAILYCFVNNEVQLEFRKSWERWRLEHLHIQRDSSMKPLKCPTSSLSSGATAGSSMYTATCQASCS
Experimental: (§1) In order to measure the activity of the triple agonists and long-acting conjugates thereof prepared according to Examples 1 and 2, the in-vitro cell activity was measured using cell lines transformed with GLP-1 receptor, glucagon (GCG) receptor, and GIP receptor, respectively.
(§2) The cell lines were transformed to express human GLP-1 receptor, human GCG receptor and human GIP receptor genes in Chinese hamster ovary (CHO), respectively, and are suitable for measuring the activities of GLP-1, GCG, and GIP. Therefore, the activity for each part was measured using each transformed cell line.
(§3) To measure the GLP-1 activity of the triple agonists and long-acting conjugates prepared according to Examples 1 and 2, human GLP-1 was diluted from 50 nM to […] by 4-fold serial dilution, and the triple agonists and long-acting conjugates thereof prepared according to Examples 1 and 2 were diluted from 400 nM to 0.00038 nM by 4-fold serial dilution. The culture medium was removed from the cultured human GLP-1 receptor-expressing CHO cells, 5 μl of each of the serially diluted materials was added to the cells, and then 5 μl of buffer containing cAMP antibody was added to the cells, followed by 15 minutes of incubation at room temperature. Then, cells were lysed by adding 10 μl of detection mix containing cell lysis buffer, and reacted at room temperature for 90 minutes. The cell lysate after the reaction had been completed, was applied to the LANCE cAMP kit (PerkinElmer, USA) to calculate the EC50 value through the accumulated cAMP, and then compared with each other.

human GCG receptor = target: T2, human GCG receptor (Homo sapiens, UniProt P47871); test: In vitro cAMP activity in human GCG receptor-expressing CHO cells (LANCE cAMP kit); settings: for In vitro activity compared to native peptide (%) vs Glucagon: long-acting conjugates, relative titer from cAMP EC50 compared to human GCG; for activity on the glucagon receptor: statement in words in the description
T2 construct: expressed in transfected cells; host or cells: Chinese hamster ovary (CHO)
T2 sequence (P47871 26-477): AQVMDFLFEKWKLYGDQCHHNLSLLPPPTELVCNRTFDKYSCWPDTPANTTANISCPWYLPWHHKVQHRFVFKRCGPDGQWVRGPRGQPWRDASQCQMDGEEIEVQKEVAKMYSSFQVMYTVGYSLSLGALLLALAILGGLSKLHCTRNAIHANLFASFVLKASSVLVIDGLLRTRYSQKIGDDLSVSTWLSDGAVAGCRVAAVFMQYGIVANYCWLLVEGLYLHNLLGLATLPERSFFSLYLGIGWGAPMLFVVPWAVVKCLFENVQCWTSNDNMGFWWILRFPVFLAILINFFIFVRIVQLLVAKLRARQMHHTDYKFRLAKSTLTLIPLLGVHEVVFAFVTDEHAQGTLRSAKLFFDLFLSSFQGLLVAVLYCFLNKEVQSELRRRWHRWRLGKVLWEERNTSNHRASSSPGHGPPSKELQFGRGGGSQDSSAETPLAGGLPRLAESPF
Experimental: as §1, §2
as §3, with “GCG” for “GLP-1”

human GIP receptor = target: T3, human GIP receptor (Homo sapiens, UniProt P48546); test: In vitro cAMP activity in human GIP receptor-expressing CHO cells (LANCE cAMP kit); settings: long-acting conjugates; relative titer from cAMP EC50 compared to human GIP
T3 construct: expressed in transfected cells; host or cells: Chinese hamster ovary (CHO)
T3 sequence (P48546 22-466): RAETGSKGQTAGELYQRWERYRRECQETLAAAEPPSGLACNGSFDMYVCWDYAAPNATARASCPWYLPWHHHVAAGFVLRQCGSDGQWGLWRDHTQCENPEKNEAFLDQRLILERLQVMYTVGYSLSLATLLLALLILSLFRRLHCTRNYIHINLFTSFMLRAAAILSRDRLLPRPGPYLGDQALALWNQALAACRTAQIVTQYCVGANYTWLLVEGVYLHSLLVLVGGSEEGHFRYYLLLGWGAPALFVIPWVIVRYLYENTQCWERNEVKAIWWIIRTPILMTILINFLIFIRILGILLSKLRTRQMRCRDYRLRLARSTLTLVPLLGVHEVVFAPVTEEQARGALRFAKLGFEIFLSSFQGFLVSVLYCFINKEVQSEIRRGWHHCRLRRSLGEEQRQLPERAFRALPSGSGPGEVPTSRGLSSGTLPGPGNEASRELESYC
Experimental: as §1, §2
as §3, with “measure the GIP activity of” for “measure the GLP-1 activity of”, “long-acting conjugates thereof prepared according” for “long-acting conjugates prepared according”, “2, human GIP was diluted” for “2, human GLP-1 was diluted”, “cultured human GIP receptor-expressing CHO” for “cultured human GLP-1 receptor-expressing CHO”

“22 (Y[Aib]QGTFTSDYSKCLDEKRAKEFVQWLLDHHPSSGQPPPS; bridge 16-20) [compound 22]” was tested, and the “In vitro activity compared to native peptide (%) vs GLP-1” value (shortened to “In vitro activity … (%) vs GLP-1”) (human GLP-1 receptor) was 0.1%, the “In vitro activity compared to native peptide (%) vs Glucagon” value (“In vitro activity … (%) vs Glucagon” below) (human GCG receptor) was 0.9% and the “activity on the glucagon receptor” value (human GCG receptor) was “very high activity”. For the same substance, the “In vitro activity compared to native peptide (%) vs GIP” value (“In vitro activity … (%) vs GIP” for short) (human GIP receptor) was 0.5%.
With “43 (Y[Aib]QGTFTSDYSKYLDEKRAKEFVQWLLDHHCSSGQPPPS; bridge 16-20) [compound 43]” the “In vitro activity … (%) vs GLP-1” value (human GLP-1 receptor) was 2.1%, the “In vitro activity … (%) vs Glucagon” value (human GCG receptor) was 13.5% and the “activity on the glucagon receptor” value (human GCG receptor) was “very high activity”. For the same substance, the “In vitro activity … (%) vs GIP” value (human GIP receptor) was 0.6%.
“96 (Y[Aib]QGTFTSDYSKYLDEKRAKEFVQWLLDHCPSSGQPPPS; bridge 16-20) [compound 96]” was tested, and the “In vitro activity … (%) vs GLP-1” value (human GLP-1 receptor) was 0.3%, the “In vitro activity … (%) vs Glucagon” value (human GCG receptor) was 4.0% and the “activity on the glucagon receptor” value (human GCG receptor) was “very high activity”. The “In vitro activity … (%) vs GIP” value (human GIP receptor) was 0.3%.
“50 (H[Aib]QGTFTSDYSKYLDEKRAKEFVQWLLDHHPSSGQPPPSC; bridge 16-20) [compound 50]” was tested, and the “In vitro activity … (%) vs GLP-1” value (human GLP-1 receptor) was 15.4%, the “In vitro activity … (%) vs Glucagon” value (human GCG receptor) was 6.9% and the “In vitro activity … (%) vs GIP” value (human GIP receptor) was 0.7%.
“42 (Y[Aib]QGTFTSDYSKYLDEKRAKEFVQWLLDHHPSSGQPPPSC; bridge 16-20) [compound 42]” was tested, and the “In vitro activity … (%) vs GLP-1” value (human GLP-1 receptor) was 3.1%, the “In vitro activity … (%) vs Glucagon” value (human GCG receptor) was 23.1% and the “activity on the glucagon receptor” value (human GCG receptor) was “very high activity”. The “In vitro activity … (%) vs GIP” value (human GIP receptor) was 1.2%.
For “77 (Y[Aib]QGTFTSDYSKYLDEKAAKDFVQWLLDHHPSSGQPPPSC; bridge 16-20) [compound 77]”, the “In vitro activity … (%) vs GLP-1” value (human GLP-1 receptor) was 6.7%, the “In vitro activity … (%) vs Glucagon” value (human GCG receptor) was 1.7% and the “In vitro activity … (%) vs GIP” value (human GIP receptor) was 6.6%.
“21 (Y[Aib]QGTFTSDYSKYLDECRAKEFVQWLLDHHPSSGQPPPS; bridge 16-20) [compound 21]” was tested, and the “In vitro activity … (%) vs GLP-1” value (human GLP-1 receptor) was 0.1%, the “In vitro activity … (%) vs Glucagon” value (human GCG receptor) was 1.6% and the “activity on the glucagon receptor” value (human GCG receptor) was “very high activity”. For the same substance, the “In vitro activity … (%) vs GIP” value (human GIP receptor) was 0.2%.
